Target: activation domain of SRC-3 (ACTR), labelled with AlexaFluor 647, with a ssDNA handle
Experiment: FRET or BRET

Substance: nuclear-coactivator binding domain of the CBP/p300 transcription factor (NCBD), labelled with LD750 (domain or fragment)
- most likely lifetime of the intermediate state (transient encounter complex), τi: 96 μs

Reference: publication doi:10.1101/2023.12.08.570755
